Measurements published in article PMC8776733, “In vivo spatiotemporal control of voltage-gated ion channels by using photoactivatable peptidic toxins” (Nature Communications, 2022).
Ends that are not written are not given here. * marks the point of attachment. Nvoc = Nvoc photocleavable protecting (caging) group on the Lys side chain, COc1cc(COC(=O)*)c([N+](=O)[O-])cc1OC

Legend:
Type in all cases: cell-based
[1] = target: T1, hERG (Homo sapiens, UniProt Q12809); assay: Photocontrol of hERG current, automated patch-clamp; conditions: 100 nM; 365 nm, 45 mW/cm^2, 250 s
T1 construct: expressed in transfected cells
T1 sequence (Q12809 whole entry): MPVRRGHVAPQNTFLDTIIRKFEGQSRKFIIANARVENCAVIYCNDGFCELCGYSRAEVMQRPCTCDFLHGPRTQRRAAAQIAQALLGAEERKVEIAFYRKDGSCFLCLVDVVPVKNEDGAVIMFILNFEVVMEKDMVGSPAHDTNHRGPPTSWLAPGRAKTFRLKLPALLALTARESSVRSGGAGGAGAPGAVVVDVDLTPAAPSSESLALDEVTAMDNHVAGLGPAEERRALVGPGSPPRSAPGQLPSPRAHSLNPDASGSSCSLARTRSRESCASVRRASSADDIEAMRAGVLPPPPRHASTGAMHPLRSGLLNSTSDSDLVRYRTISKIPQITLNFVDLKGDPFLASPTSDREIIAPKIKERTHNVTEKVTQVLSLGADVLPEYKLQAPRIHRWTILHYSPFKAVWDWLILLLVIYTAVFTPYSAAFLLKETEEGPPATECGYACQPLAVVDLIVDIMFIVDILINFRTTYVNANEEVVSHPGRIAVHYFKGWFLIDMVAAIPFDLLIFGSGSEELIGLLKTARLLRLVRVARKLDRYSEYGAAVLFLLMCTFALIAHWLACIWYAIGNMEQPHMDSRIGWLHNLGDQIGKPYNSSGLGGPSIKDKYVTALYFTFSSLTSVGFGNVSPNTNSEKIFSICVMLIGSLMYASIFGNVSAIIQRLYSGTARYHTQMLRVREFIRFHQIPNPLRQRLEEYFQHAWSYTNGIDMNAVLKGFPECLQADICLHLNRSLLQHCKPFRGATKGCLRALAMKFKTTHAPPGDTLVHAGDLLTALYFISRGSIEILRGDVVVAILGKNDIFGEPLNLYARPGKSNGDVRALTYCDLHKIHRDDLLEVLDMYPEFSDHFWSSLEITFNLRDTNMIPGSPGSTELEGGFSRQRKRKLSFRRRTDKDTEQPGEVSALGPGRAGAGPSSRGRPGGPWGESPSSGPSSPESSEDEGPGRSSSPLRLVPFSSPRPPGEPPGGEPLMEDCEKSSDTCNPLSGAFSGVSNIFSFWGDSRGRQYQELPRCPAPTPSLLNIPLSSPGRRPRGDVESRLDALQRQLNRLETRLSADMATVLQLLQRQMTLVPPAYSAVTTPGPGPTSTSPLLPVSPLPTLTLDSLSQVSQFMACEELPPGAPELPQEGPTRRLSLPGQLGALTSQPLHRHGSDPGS
Procedure: (§1) HEK293 cells stably expressing the hNaV1.1 (XM_011511604), hNaV1.2 (XM_017004655) or hNaV1.6 (XM_011538651) channels, CHO cells transiently expressing hKV1.2 (NG_027997.2) and CHO cells stably expressing hNaV1.7 (XM_011511618) or the hERG (NM_000238) channels were cultured in Dulbecco’s Modified Eagle’s Medium (DMEM) supplemented with 10% fetal bovine serum, 1 mM pyruvic acid, 4.5 g/L glucose, 4 mM glutamine, 800 µg/mL G418, 10 U/mL penicillin and 10 μg/mL streptomycin (Gibco, Grand Island, NY). All cell lines were incubated at 37 °C in a 5% CO2 atmosphere. For electrophysiological recordings, cells were detached with trypsin and floating single cells were diluted (~300,000 cells/mL) in medium contained (in mM): […], 4 KCl, 2 CaCl2, 1 MgCl2, 5 glucose, and 10 HEPES (pH 7.4, osmolarity 298 mOsm).
(§2) Automated patch-clamp recordings were performed using the SyncroPatch 384PE from Nanion (München, Germany). […] Current inhibition percentages were measured at equilibrium after 14 min peptide application time. […]
(§3) The pharmacology of HwTxIV-Nvoc, as well as the efficiency of the released product to block hNaV channels was studied using combined automated patch-clamp and UV illumination. After 2 min of control, HwTxIV-Nvoc was added to the external buffer and effects were recorded for 100 s prior to a 250 s-duration illumination for photocleavage induction of the caged compound. […]

[2] = target: T2, hNaV1.6 (Homo sapiens, UniProt Q9UQD0); assay: Photoactivation by UV illumination combined with automated patch-clamp; conditions: 100 nM, illumination 4 min, 365 nm, 45 mW/cm2; n = 14
T2 construct: expressed in transfected cells
T2 sequence (Q9UQD0 whole entry): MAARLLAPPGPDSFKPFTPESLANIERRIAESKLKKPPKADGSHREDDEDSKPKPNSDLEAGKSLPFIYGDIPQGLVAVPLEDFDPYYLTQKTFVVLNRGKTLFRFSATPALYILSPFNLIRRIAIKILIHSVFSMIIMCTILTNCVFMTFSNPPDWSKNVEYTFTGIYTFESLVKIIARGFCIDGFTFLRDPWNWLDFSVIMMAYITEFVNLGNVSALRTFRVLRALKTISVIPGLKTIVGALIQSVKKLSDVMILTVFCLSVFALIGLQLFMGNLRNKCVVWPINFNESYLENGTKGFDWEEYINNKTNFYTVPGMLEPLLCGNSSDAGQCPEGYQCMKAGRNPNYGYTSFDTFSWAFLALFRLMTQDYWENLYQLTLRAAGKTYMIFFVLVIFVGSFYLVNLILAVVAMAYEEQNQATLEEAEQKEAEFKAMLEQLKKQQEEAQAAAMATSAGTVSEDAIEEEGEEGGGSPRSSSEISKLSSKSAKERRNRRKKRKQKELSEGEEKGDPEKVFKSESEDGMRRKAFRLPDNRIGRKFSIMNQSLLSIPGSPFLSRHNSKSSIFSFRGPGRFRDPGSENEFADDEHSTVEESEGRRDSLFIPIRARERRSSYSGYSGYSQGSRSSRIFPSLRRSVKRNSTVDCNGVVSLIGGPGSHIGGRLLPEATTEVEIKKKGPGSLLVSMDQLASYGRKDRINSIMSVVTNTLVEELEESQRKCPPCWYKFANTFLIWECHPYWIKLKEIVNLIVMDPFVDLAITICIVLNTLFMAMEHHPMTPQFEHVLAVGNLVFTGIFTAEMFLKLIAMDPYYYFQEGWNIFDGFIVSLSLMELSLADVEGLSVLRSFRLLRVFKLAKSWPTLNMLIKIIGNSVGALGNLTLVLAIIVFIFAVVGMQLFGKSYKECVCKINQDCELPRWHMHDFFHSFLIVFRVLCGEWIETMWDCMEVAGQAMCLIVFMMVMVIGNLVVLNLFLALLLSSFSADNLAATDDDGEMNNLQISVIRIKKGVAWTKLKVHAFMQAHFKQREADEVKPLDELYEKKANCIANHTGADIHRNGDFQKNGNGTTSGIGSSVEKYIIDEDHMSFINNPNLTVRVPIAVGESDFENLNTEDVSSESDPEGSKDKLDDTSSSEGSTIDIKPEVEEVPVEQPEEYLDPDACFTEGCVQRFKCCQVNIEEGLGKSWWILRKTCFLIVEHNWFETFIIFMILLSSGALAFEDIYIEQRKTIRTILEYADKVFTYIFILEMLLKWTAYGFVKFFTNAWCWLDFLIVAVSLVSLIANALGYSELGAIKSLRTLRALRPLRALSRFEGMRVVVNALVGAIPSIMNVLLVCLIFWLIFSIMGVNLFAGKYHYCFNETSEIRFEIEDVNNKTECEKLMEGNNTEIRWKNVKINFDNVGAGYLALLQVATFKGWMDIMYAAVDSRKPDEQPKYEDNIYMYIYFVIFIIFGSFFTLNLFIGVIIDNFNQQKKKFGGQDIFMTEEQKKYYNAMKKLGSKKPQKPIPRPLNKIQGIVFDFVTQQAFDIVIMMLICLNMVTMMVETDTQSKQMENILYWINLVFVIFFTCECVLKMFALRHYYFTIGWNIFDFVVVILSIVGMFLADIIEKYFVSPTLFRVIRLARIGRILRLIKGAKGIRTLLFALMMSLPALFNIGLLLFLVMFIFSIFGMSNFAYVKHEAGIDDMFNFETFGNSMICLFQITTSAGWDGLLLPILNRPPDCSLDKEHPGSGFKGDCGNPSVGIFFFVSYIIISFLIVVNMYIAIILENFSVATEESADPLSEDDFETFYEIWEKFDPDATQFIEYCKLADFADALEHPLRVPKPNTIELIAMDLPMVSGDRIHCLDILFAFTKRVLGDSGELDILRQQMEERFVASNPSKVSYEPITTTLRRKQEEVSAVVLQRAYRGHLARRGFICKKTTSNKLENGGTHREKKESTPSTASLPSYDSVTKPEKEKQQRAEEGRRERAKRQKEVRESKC
Procedure: as §1, §2, §3

[3] = target: T3, hKV1.2 (Homo sapiens, UniProt P16389); assay: Photocontrol of KV1.2 current, automated patch-clamp; conditions: 100 nM; 365 nm, 45 mW/cm^2, 250 s
T3 construct: expressed in transfected cells; host or cells: CHO (transient)
T3 sequence (P16389 whole entry): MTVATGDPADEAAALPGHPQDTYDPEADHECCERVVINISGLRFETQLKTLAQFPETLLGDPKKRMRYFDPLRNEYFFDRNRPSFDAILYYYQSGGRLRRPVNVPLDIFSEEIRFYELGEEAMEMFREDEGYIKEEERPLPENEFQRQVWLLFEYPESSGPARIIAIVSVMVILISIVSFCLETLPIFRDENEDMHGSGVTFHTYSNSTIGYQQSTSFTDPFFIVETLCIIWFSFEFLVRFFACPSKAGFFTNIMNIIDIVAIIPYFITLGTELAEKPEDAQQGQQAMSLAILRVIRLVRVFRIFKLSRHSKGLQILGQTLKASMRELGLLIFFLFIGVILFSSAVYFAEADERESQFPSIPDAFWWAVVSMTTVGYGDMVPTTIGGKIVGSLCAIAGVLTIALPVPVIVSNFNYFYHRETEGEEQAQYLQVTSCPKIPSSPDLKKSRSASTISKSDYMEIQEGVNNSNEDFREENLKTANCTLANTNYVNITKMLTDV
Procedure: as §1, §2, §3

Row | Substance | UV-dependent effect on hERG current [1] | effect of Nvoc photolysis by-product on hNaV1.6 [2] | UV-dependent effect on KV1.2 current [3]
1 | BeKm1-Nvoc: BeKm1 (hERG blocker) caged with a Nvoc protecting group on K^18 (RPTDIKCSESYQCFPVCK(Nvoc)SRFGKTNGRCVNGFCDCF; ends and bridges not checked; UniProt Q9BKB7 22-57, looked up) | block | inert | 
2 | charybdotoxin-Nvoc |  |  | block
